Molecular target: MUC1 (polymorphic epithelial mucin) on human tumor cells (human, UniProt P15941 24-1255)
Assay: cell binding test with radiolabelled antibody on K562 cells, Scatchard analysis

Chain of MUC1 (polymorphic epithelial mucin) on human tumor cells (P15941 24-1097, chain 1 of 2): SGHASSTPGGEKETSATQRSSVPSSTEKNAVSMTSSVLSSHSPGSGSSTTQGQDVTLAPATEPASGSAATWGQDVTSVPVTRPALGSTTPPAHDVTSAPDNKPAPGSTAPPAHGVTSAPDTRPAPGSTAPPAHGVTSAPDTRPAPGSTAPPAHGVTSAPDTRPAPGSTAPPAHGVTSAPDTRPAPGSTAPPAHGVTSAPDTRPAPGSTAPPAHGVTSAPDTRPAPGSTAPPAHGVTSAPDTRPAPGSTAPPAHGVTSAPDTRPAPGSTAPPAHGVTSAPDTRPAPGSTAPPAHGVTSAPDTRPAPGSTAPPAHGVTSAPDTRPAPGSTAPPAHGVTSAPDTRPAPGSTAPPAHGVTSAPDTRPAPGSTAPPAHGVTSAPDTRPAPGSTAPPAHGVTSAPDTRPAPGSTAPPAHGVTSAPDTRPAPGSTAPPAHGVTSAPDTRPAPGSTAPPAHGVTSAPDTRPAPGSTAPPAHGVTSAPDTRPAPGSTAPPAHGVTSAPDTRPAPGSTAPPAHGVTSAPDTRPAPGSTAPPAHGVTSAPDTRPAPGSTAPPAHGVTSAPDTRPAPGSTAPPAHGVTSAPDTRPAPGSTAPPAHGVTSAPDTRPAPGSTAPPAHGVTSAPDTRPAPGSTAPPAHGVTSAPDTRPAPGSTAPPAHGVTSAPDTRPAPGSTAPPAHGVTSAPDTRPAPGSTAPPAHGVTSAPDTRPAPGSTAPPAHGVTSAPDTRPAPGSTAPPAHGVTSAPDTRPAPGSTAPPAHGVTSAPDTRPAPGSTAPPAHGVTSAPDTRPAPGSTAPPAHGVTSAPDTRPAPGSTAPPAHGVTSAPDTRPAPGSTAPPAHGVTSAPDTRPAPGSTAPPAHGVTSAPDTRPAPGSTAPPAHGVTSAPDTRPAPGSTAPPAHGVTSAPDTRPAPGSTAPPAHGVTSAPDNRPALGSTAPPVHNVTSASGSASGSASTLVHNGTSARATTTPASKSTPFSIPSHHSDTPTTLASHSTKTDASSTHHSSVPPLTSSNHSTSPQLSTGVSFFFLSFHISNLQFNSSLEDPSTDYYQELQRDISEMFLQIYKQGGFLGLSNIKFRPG
Chain of MUC1 (polymorphic epithelial mucin) on human tumor cells (P15941 1098-1255, chain 2 of 2): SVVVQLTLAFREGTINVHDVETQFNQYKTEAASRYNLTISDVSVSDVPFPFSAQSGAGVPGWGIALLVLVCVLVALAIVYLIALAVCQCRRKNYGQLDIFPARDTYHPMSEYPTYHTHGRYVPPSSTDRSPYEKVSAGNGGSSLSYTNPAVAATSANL

B1: HMFG-1 (antibody, V domains shown)
VH: QVQLVQSGAEVKKPGASVKVSCKASGYTFSAYWIEWVRQAPGKGLEWVGEILPGSNNSRYNEKFKGRVTVTRDTSTNTAYMELSSLRSEDTAVYYCARSYDFAWFAYWGQGTLVTVSS
VL: DIQMTQSPSSLSASVGDRVTITCKSSQSLLYSSNQKIYLAWYQQKPGKAPKLLIYWASTRESGVPSRFSGSGSGTDFTFTISSLQPEDIATYYCQQYYRYPRTFGQGTKVEIKR
- Ka: 2.7e+08 M⁻¹
